Values of other authors in patent publication US8623366B2, “Methods for treating visceral pain by administering antagonist antibodies directed against calcitonin gene-related peptide” (Labrys Biologics, Inc., priority 2009, dated 2014).
Numbering of substitutions follows the chain as printed. Names and notes keep the numbering of the source.

T1: human α-CGRP (Homo sapiens, UniProt P06881)
T1 sequence (P06881 83-119 limits assumed): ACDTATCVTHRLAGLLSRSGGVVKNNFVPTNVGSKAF

T2: α-rat CGRP (Rattus norvegicus, UniProt P01256)
T2 sequence (P01256 83-119 limits assumed): T1 sequence (P06881 83-119 limits assumed) with A1S, D3N, N25D, K35E

B1: M46: G1 variant: L1 R28N; L2 G50A L56T; H2 E54K A57N S58E H61F; HC-FW3 L99T A100V (antibody, chains of the INN, looked up, variant L:R28N L:G50A L:L56T H:E54K H:A57N H:S58E H:H61F H:L99T H:A100V, V domains shown)
VH: EVQLVESGGGLVQPGGSLRLSCAASGFTFSNYWISWVRQAPGKGLEWVAEIRSKSDNEATFYAEAVKGRFTISRDNAKNSLYLQMNSLRAEDTAVYYCTVYFDYGLAIQNYWGQGTLVTVSS
VL: EIVLTQSPATLSLSPGERATLSCKASKNVTTYVSWYQQKPGQAPRLLIYAASNRYTGIPARFSGSGSGTDFTLTISSLEPEDFAVYYCSQSYNYPYTFGQGTKLEIK
B2: M67: G1 variant: L1 R28N T30G; L2 L56I; H2 E54K A57F; HC-FW3 L99T A100V (antibody, chains of the INN, looked up, variant L:R28N L:T30G L:L56I H:E54K H:A57F H:L99T H:A100V, V domains shown)
VH: B1 VH with N57F, E58S, F61H
VL: B1 VL with T30G, A50G, T56I
B3: M49: G1 variant: L1 R28N; L2 G50A L56T; H2 E54K A57N S58Y H61F; HC-FW3 L99T A100V (antibody, chains of the INN, looked up, variant L:R28N L:G50A L:L56T H:E54K H:A57N H:S58Y H:H61F H:L99T H:A100V, V domains shown)
VH: B1 VH with E58Y
VL: B1 VL
B4: M83: G1 variant: L1 R28N T30V; L2 A51H L56T; H2 E54K A57N S58M H61F; HC-FW3 L99T A100V (antibody, chains of the INN, looked up, variant L:R28N L:T30V L:A51H L:L56T H:E54K H:A57N H:S58M H:H61F H:L99T H:A100V, V domains shown)
VH: B1 VH with E58M
VL: B1 VL with T30V, A50G, A51H
B5: M23: G1 variant: L1 R28G; HC-FW3 L99T A100V (antibody, chains of the INN, looked up, variant L:R28G H:L99T H:A100V, V domains shown)
VH: B1 VH with K54E, N57A, E58S, F61H
VL: B1 VL with N28G, A50G, T56L
B6: M78: G1 variant: L1 R28N T30S; L2 G50A L56T; H2 E54K A57N S58T; HC-FW3 L99T A100V (antibody, chains of the INN, looked up, variant L:R28N L:T30S L:G50A L:L56T H:E54K H:A57N H:S58T H:L99T H:A100V, V domains shown)
VH: B1 VH with E58T, F61H
VL: B1 VL with T30S
B7: M69: G1 variant: L1 R28N T30G; L2 L56I; H2 E54K A57N S58E; HC-FW3 L99T A100V (antibody, chains of the INN, looked up, variant L:R28N L:T30G L:L56I H:E54K H:A57N H:S58E H:L99T H:A100V, V domains shown)
VH: B1 VH with F61H
VL: B1 VL with T30G, A50G, T56I
B8: M65: G1 variant: L1 R28N T30G; L2 G50A L56I; H2 E54K A57C; HC-FW3 L99T A100V (antibody, chains of the INN, looked up, variant L:R28N L:T30G L:G50A L:L56I H:E54K H:A57C H:L99T H:A100V, V domains shown)
VH: B1 VH with N57C, E58S, F61H
VL: B1 VL with T30G, T56I
B9: M84: G1 variant: L1 R28N T30V; L2 A51H L56T; H2 E54N A57N; HC-FW3 L99T A100V (antibody, chains of the INN, looked up, variant L:R28N L:T30V L:A51H L:L56T H:E54N H:A57N H:L99T H:A100V, V domains shown)
VH: B1 VH with K54N, E58S, F61H
VL: B1 VL with T30V, A50G, A51H
B10: M71: G1 variant: L1 R28N T30G; L2 L56I; H2 E54K A57Y; HC-FW3 L99T A100V (antibody, chains of the INN, looked up, variant L:R28N L:T30G L:L56I H:E54K H:A57Y H:L99T H:A100V, V domains shown)
VH: B1 VH with N57Y, E58S, F61H
VL: B1 VL with T30G, A50G, T56I
B11: M77: G1 variant: L1 R28N T30S; L2 G50A L56T; H2 E54K A57D; HC-FW3 L99T A100V (antibody, chains of the INN, looked up, variant L:R28N L:T30S L:G50A L:L56T H:E54K H:A57D H:L99T H:A100V, V domains shown)
VH: B1 VH with N57D, E58S, F61H
VL: B1 VL with T30S
B12: M62: G1 variant: L1 R28N T30G; L2 A51H L56T; H2 E54K A57N S58E; HC-FW3 L99T A100V (antibody, chains of the INN, looked up, variant L:R28N L:T30G L:A51H L:L56T H:E54K H:A57N H:S58E H:L99T H:A100V, V domains shown)
VH: B1 VH with F61H
VL: B1 VL with T30G, A50G, A51H
B13: M55: G1 variant: L1 R28N T30A; L2 L56S; H2 E54K A57N S58E E64D; HC-FW3 L99T A100V (antibody, chains of the INN, looked up, variant L:R28N L:T30A L:L56S H:E54K H:A57N H:S58E H:E64D H:L99T H:A100V, V domains shown)
VH: B1 VH with F61H, E64D
VL: B1 VL with T30A, A50G, T56S
B14: M51: G1 variant: L1 R28N; L2 L56I; H2 E54K A57G; HC-FW3 L99T A100V (antibody, chains of the INN, looked up, variant L:R28N L:L56I H:E54K H:A57G H:L99T H:A100V, V domains shown)
VH: B1 VH with N57G, E58S, F61H
VL: B1 VL with A50G, T56I
B15: M73: G1 variant: L1 R28N T30G; L2 L56S; H2 E54K A57N S58Y E64D; HC-FW3 L99T A100V (antibody, chains of the INN, looked up, variant L:R28N L:T30G L:L56S H:E54K H:A57N H:S58Y H:E64D H:L99T H:A100V, V domains shown)
VH: B1 VH with E58Y, F61H, E64D
VL: B1 VL with T30G, A50G, T56S
B16: M75: G1 variant: L1 R28N T30G; L2 L56S; H2 E54K A57V; HC-FW3 L99T A100V (antibody, chains of the INN, looked up, variant L:R28N L:T30G L:L56S H:E54K H:A57V H:L99T H:A100V, V domains shown)
VH: B1 VH with N57V, E58S, F61H
VL: B1 VL with T30G, A50G, T56S
B17: M74: G1 variant: L1 R28N T30G; L2 L56S; H2 E54K A57S; HC-FW3 L99T A100V (antibody, chains of the INN, looked up, variant L:R28N L:T30G L:L56S H:E54K H:A57S H:L99T H:A100V, V domains shown)
VH: B1 VH with N57S, E58S, F61H
VL: B1 VL with T30G, A50G, T56S
B18: M47: G1 variant: L1 R28N; L2 G50A L56T; H2 E54K A57N S58G; HC-FW3 L99T A100V (antibody, chains of the INN, looked up, variant L:R28N L:G50A L:L56T H:E54K H:A57N H:S58G H:L99T H:A100V, V domains shown)
VH: B1 VH with E58G, F61H
VL: B1 VL

Tests used:
human α-CGRP = molecular target: T1, human α-CGRP; conditions: Table 6 reproduced from WO2007/054809; cited from earlier work
α-rat CGRP = molecular target: T2, α-rat CGRP; conditions: Table 6 reproduced from WO2007/054809; cited from earlier work

Molecule	Kd (human α-CGRP) [nM]	Kd (α-rat CGRP) [nM]
M15: G1 variant: HC-FW3 L99T A100P [Clone M15]	0.1	63.9
M2: G1 variant: HC-FW3 L99A A100R [Clone M2]	3	58
M10: G1 variant: HC-FW3 L99S A100S [Clone M10]	1.08	83.9
M8: G1 variant: HC-FW3 L99N A100G [Clone M8]	0.58	41.4
M18: G1 variant: HC-FW3 L99V A100G [Clone M18]	0.44	67.8
B1	3.37	163
B2	5.13	95
B3	3.72	822
B4	5.83	
B5	0.81	44.4
B6	8.19	9280
B7	4.58	101
B8	5.02	226
B9	6.75	978
B10		118
B11	2.98	794
B12	5.86	242
B13	2.99	325
B14	0.82	65.6
B15	1.59	167
B16	7.25	1040
B17	3.73	335
B18	2.08	457
